Experiments:
rat hippocampal neurons = assay: Ligand-induced growth cone collapse in hippocampal neurons; type: cell-based; settings: antibody A 0.1, 0.3, 1 μM; KYL peptide 10, 30, 100 μM
Method: Rat hippocampal neurons were prepared as described in Example 10 above. The cells were inoculated to a 96-well plate (Greiner Bio-One) coated with poly-L-lysine containing culture solution.
The growth cone collapse assay using the hippocampal neurons was conducted according to the following steps. The rat hippocampal neurons of culture day 2 inoculated to the 96-well dish (Greiner Bio-One) were treated with PBS (Wako Pure Chemical Industries), antibody A (0.1, 0.3, and 1 μM), or an EphA4 inhibitor KYL peptide (KYLPYWPVLSSL, 10, 30, and 100 μM, its synthesis was outsourced to Toray Research Center) for 15 minutes and then treated with goat anti-human Fcγ fragment IgG1 antibody (Jackson ImmunoResearch Laboratories)-preclustered mouse Ephrin A1-Fc chimera (R&D Systems, final concentration: 1 μg/mL) (ratio: 1:5) for 30 minutes. Then, the culture solution was removed, and 2% PFA (Wako Pure Chemical Industries)/4% sucrose (Wako Pure Chemical Industries)/PBS was added, and left standing for 20 minutes to fix the cells. The solution was removed, and the cells were washed with PBS three times, followed by the addition of 0.25% Triton X-100 (Wako Pure Chemical Industries)/PBS for cell penetration treatment for 15 minutes. […] Neurons forming growth cone were counted in 30 fields of view per sample to calculate the proportion of the number of neurons causing growth cone collapse.

[1] = tested on: EphA4 autophosphorylation induced by mouse Ephrin A1; assay: In vivo competition assay using mouse newborns (EphA4 autophosphorylation in cerebral hemisphere); settings: 8-day-old mouse, 300 mg/kg subcutaneous
Method: The in vivo competition assay using mouse newborns was conducted according to the following steps. PBS (Wako Pure Chemical Industries), antibody A, or a control antibody (mouse anti-dinitrophenol antibody) produced with a conventional procedure by immunizing […] with dinitrophenol was subcutaneously administered at a dose of 300 mg/kg (30 mL/kg) to each 8-day-old mouse (Charles River Laboratories Japan). After 24 hours, the scalp was incised under 4% isoflurane (Intervet) anesthesia, and mouse Ephrin A1-Fc chimera (300 pmol/head, R&D Systems) or PBS (Wako Pure Chemical Industries) was administered into the lateral ventricle. 1 hour thereafter, the mouse was euthanized by decapitation, followed by the extirpation of the cerebral hemisphere. […] 3×SDS sample buffer was added to a portion of the homogenate, which was then boiled for 10 minutes, followed by protein quantification. […] The remaining homogenate was subjected to protein quantification and then dispensed in an amount corresponding to 3 mg of protein, and 1% Triton X-100 (Wako Pure Chemical Industries) and 0.1% SDS (Nacalai Tesque) were added thereto. […] Western blotting using an anti-EphA4 monoclonal antibody (Abnova) was further performed, and band intensity was quantified to calculate a value of phosphorylated EphA4/total EphA4. […]

B1: antibody A: mouse anti-EphA4 monoclonal antibody, IgG1/κ; heavy chain variable region SEQ ID NO: 11, light chain variable region SEQ ID NO: 13 (antibody, listed as Mus musculus, V domains shown)
VH: QIQLVQSGPELKKPGETVKISCKASGYTFTDYSMHWVKQAPGKGLKWMGWINTETGEPTYADDFKGRFAFSLETSASTAYLQINNLKNEDTATYFCARIPLYYYGSRYWYFDVWGAGTTVTVSS
VL: DIQMTQSPASLSVSVGETVTITCRASENIYRNLAWYQQKQGKSPQLLVYAATNLADGVPSRFSGSGSGTQYSLKINSLQSEDFGSYYCQHFWGTPWTFGGGTKLEIK
B1 was tested, and the “suppression of growth cone collapse induced by mouse Ephrin A1 (in words)” value (rat hippocampal neurons) was “suppressed, in a concentration-dependent manner” and the “suppression of mouse EphrinA1-induced EphA4 autophosphorylation” value [1] was 66%.

— patent US10428140B2, “Anti-EphA4 antibody” (EISAI R&D MANAGEMENT CO., LTD., priority 2015, dated 2019)
